Data published in US20100022454A1 (Novo Nordisk, published 2010).
Where a chain is given by its changes, count along the chain named. Names and notes keep the numbering of the source. Each block holds one binder with its values, some of them ahead of it.

Assays:
[1] = molecular target: prolactin receptor (PRLR) on T47D cells; assay: cell-based or functional assay
[2] = molecular target: T1, hPRLR on stably transfected BaF/3 cells (human, UniProt P16471 25-622); assay: cell-based or functional assay
T1 sequence (looked up): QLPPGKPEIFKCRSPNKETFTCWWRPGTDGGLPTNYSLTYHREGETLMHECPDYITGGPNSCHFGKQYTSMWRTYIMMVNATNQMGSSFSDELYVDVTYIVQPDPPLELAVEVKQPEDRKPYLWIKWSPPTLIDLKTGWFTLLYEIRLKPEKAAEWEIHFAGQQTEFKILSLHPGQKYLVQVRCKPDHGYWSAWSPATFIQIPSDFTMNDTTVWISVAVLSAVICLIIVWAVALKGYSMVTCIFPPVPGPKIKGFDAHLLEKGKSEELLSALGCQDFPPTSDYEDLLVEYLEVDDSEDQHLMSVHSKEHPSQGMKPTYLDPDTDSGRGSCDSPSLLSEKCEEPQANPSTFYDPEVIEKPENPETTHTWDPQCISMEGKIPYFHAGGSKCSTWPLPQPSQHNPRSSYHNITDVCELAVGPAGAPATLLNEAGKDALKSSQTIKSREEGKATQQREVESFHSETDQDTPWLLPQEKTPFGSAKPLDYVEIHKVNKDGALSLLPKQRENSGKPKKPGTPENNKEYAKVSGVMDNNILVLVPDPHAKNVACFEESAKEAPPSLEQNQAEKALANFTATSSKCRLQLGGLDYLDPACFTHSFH

Apparent IC50 (nM) at 20 nM PRL; inhibition of PRL induced STAT3 phosphorylation, phospho-STAT3 ELISA on T47D cells [1]: 69 nM
B1: PRL G129R (ligand)
chain: LPICPGGAARCQVTLRDLFDRAVVLSHYIHNLSSEMFSEFDKRYTHGRGFITKAINSCHTSSLATPEDKEQAQQMNQKDFLSLIVSILRSWNEPLYHLVTEVRGMQEAPEAILSKAVEIEEQTKRLLERMELIVSQVHPETKENEIYPVWSGLPSLQMADEESRLSAYYNLLHCLRRDSHKIDNYLKLLKCRIIHNNNC

EC50 (nM) of PRL in the presence of 1 µM PRL S61A G129R, BaF3 proliferation assay (AlamarBlue), n = 9 [2]: 40 nM
EC50 (nM), BaF3 proliferation assay (AlamarBlue), n = 31 [2]: 0.15 nM
B2: human prolactin (PRL), wildtype (ligand)
chain: B1 chain with R129G

Apparent IC50 (nM) at 20 nM PRL; inhibition of PRL induced STAT3 phosphorylation, phospho-STAT3 ELISA on T47D cells [1]: 18 nM
B3: PRL S61A G129R (ligand)
chain: B1 chain with S61A
